# According to patent US6369030 (ROCKFELLER UNIVERSITY, dated 2002):
# Key:
# [1] = biological target: p300 histone acetyltransferase (full length, purified recombinant) (UniProt Q09472 2-2414, limits assumed); experiment: cell-based or functional assay
# [2] = biological target: PCAF histone acetyltransferase (full length, purified recombinant) (UniProt Q92831 1-832, limits assumed); experiment: cell-based or functional assay
# PCAF histone acetyltransferase (full length, purified recombinant), sequence (Q92831 whole entry): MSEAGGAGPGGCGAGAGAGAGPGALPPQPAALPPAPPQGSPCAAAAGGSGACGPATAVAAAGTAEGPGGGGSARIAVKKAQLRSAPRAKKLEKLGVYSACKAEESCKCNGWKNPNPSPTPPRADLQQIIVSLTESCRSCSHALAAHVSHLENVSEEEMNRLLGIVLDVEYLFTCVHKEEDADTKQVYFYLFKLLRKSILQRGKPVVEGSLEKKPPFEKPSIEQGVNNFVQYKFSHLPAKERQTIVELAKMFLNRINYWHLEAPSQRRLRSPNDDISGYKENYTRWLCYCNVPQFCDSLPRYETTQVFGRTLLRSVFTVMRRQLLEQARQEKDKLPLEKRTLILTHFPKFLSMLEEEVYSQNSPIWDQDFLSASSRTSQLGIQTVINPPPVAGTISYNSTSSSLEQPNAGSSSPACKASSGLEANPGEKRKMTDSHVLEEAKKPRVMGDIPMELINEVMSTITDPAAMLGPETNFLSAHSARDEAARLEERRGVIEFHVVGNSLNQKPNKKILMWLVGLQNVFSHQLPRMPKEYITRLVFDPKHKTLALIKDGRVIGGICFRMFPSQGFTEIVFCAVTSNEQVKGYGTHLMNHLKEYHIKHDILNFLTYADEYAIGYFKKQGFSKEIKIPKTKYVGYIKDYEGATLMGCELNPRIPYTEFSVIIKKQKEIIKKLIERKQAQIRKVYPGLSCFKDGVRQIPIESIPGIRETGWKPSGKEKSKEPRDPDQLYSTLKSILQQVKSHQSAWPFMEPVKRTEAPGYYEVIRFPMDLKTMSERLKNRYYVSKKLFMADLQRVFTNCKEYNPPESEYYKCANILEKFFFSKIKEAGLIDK
# p300 histone acetyltransferase (full length, purified recombinant), sequence (Q09472 2-2414 limits assumed): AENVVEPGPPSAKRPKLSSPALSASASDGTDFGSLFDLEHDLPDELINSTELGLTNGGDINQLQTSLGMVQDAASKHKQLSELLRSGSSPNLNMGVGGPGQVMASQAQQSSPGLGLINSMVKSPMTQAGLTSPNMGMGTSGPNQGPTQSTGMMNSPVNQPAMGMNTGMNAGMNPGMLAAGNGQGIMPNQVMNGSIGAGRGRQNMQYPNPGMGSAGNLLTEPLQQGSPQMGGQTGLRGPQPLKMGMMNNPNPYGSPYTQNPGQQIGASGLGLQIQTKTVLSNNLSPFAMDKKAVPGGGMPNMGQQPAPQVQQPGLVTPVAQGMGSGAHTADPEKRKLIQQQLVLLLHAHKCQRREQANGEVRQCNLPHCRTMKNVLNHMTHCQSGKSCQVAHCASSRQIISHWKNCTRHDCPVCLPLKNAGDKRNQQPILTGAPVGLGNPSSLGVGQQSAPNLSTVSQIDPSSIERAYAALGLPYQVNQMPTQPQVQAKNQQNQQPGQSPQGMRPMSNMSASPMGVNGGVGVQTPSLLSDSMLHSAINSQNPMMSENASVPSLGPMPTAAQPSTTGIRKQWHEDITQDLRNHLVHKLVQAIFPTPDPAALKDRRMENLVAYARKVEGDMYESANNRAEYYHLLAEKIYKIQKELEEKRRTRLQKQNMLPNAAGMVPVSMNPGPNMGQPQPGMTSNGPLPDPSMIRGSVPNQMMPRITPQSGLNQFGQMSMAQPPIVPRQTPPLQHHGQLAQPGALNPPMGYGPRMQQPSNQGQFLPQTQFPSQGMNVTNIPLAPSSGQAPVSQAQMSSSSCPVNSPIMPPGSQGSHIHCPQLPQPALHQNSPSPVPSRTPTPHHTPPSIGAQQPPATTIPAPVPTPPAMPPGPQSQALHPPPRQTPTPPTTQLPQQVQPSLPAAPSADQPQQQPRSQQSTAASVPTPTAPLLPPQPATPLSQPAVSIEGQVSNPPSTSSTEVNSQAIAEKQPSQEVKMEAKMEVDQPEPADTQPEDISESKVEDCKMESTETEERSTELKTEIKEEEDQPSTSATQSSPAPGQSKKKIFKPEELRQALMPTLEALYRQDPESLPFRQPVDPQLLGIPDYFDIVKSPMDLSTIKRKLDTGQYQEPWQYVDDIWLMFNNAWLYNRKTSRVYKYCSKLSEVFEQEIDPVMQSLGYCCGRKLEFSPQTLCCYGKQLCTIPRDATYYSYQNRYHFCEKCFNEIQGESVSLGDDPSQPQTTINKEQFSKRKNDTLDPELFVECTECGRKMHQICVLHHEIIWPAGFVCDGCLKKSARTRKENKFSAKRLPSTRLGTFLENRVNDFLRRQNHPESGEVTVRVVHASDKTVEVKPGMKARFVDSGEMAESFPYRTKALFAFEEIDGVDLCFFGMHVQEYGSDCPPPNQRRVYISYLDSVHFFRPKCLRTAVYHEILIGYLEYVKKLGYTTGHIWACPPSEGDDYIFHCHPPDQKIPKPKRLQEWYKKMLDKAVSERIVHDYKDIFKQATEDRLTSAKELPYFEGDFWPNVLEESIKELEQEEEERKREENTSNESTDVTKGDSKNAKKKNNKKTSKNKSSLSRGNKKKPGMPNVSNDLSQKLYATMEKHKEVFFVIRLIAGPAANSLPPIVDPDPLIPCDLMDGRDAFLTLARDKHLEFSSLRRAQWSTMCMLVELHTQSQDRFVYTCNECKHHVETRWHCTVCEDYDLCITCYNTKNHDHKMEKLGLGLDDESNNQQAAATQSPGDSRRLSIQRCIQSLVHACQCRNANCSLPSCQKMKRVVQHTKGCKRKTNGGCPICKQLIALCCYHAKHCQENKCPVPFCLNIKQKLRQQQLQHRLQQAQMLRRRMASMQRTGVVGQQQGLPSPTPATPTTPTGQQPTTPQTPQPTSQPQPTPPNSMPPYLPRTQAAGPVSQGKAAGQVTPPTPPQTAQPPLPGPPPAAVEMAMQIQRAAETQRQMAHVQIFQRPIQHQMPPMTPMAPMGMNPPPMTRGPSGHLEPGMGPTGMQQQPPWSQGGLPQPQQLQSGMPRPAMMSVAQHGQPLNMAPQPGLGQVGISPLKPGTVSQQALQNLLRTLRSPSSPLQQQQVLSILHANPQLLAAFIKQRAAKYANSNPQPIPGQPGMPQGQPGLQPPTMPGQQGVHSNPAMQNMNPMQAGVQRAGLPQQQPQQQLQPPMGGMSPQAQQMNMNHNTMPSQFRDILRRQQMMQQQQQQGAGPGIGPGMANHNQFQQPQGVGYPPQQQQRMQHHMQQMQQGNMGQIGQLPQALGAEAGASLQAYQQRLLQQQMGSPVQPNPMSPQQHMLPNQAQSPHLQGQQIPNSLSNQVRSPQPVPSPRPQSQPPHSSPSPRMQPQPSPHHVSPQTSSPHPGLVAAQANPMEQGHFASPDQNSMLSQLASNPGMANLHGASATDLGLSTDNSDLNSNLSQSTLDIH
binder,measurement,setting,value
Ac-GGKAPRK-NH2 (also: further groups not given here) [H3-CoA-7],"IC50 with p300 (µM), HAT activity inhibition, mixed histones",[1],> 30 µM
same,"IC50 with PCAF (µM), HAT activity inhibition, mixed histones",[2],> 20 µM
